This is an account of results in patent US20240002497A1 (Merck Sharp & Dohme, published 2024).

As a reminder, the EC50 is the concentration needed to bring the measured effect to its halfway point.

Test [1] has as its target huNav1.7α + β1 (human). Nature of the test: cell-based or functional assay.
For test [2], the target named is rhNav1.7α + β1-β2-β3 (rhesus monkey). Kind of test: cell-based or functional assay.
For test [3], the target named is T1, huNav1.7α (human Nav1.7 alpha subunit, expressed without β subunits) (human, UniProt Q15858 1-1988).
T1 construct: also called HEK293 human Nav1.7α; HEKa Nav1.7α
Nature of the test: binding FACS, HEKa cells.

The target of test [4] is T2, huNav1.7α + β1 (human Nav1.7α co-expressed with Navβ1) (human, UniProt Q15858 1-1988; Q07699 19-218).
T2 construct: also called HEK293 human Nav1.7α + β1; HEKa/β1 Nav1.7α
Nature of the test: binding FACS, HEKa/β1 cells.

Test [5] has as its target T3, huNav157 chimera 14 + β1-β2-β3 (human).
T3 construct: Chimera of huNav1.7α (extracellular loops and transmembrane helices) and huNav1.5α (intracellular loops); also called Nav157ch14-β1-β2-β3; huNav157 chimera 14-beta1-beta2-beta3
Nature of the test: binding FACS, HEK FlpIn cells.

Test [6] addresses T4, huNav157 chimera 14 (human).
T4 construct: Chimera without β subunits; also called Nav157ch14
Kind of test: binding FACS, HEK FlpIn cells.

For test [7], the target named is huNav1.7α + β1 on HEK cells (human, UniProt Q15858 1-1988; Q07699 19-218). Kind of test: binding FACS, HEK cells (HEKa/b1).
For test [8], the target named is T5, rhNav1.7α+β1-β2-β3 (rhesus monkey α subunit with human β …).
T5 construct: P2A cleaves it into α, β1, β2, β3; also called rhNav1.7-beta1-beta2-beta3
Kind of test: binding FACS, CHO FlpIn cells.

Test [9] concerns the target rhNav1.7α (rhesus monkey, UniProt Q15858 1-1988 (human entry)). Nature of the test: cell-based or functional assay.
Test [10] has as its target T6, huNav1.7α (human, UniProt Q15858 1-1988). Nature of the test: cell-based or functional assay.
Test [11] has as its target T6, huNav1.7α. Kind of test: binding FACS, HEKa cells.
Test [12] deals with T7, huNav1.7α+β1 (human, UniProt Q15858 1-1988; Q07699 19-218).
T7 construct: also called huNav1.7-beta1; HEKa/β1
Kind of test: binding FACS, HEKa/β1 cells.

Residue numbers refer to the chain shown, from its start. Numbers in names are those of the source.

B1: F010302383 (VHH)
VHH: EVQLVESGGGVVQPGGSLRLSCAASGPVFNINRMAWYRQAPGKQRELVAYVTPTGDISYADSVKGRFTISRGGSKRVYLQMNSLRPEDTALYYCRALLQPSSYSGTRTYWGQGTLVTVSS
B1: the “Qpatch IC50” value in test [1] worked out at 22 nM; in [2], 3 nM.

B2: F010301556 (VHH)
VHH: EVQLVESGGGLVQAGGSLRLSCAASGRILRIGYMRWHRQGAGKQREFVARITGGSATGYADSVKGRFTISRDNAKNTVYLQMNNLNPEDTAVYYCEALVTASVRGGSIHSGTYWGRGTLVTVSS
notes: also called F0103387G05(D23A, D53G, D54G, D58G)
As to B2, the EC50 in test [3] was determined as 1.8 nM; in test [4] it was 1.4 nM.

B3: F010301646 (VHH)
VHH: EVQLVESGGGVVQPGGSLRLSCDASGRILRIGYMRWHRQGPGKQREFVARITDDSATDYADSVKGRFTISRDNAKNTVYLQMNSLRPEDTALYYCEALVTASVRGGSIHSGTYWGQGTLVTVSS
notes: also called F0103387G05(L11V, A14P, A41P, N82bS, N83R, V89L, R105Q)
Consider B3, for which the EC50 in test [5] turned out to be 4.2 nM; in test [6], 3.1 nM; in test [3], 4.4 nM; in test [4], 4.1 nM. Further, the Bmax in [6] and in [3] was 100% each time.

B4: F010301649 (VHH)
VHH: B3 VHH with P41A
notes: also called F0103387G05(L11V, A14P, N82bS, N83R, V89L, R105Q)
Consider B4, for which the EC50 in [5] came out at 4.2 nM; in [6], 3.4 nM; in test [3], 5.3 nM; in test [4] it was 4.1 nM. The Bmax in test [6] and in test [3] was 100% each time.

B5: F010301644 (VHH)
VHH: B3 VHH with H37Y, P41A
notes: also called F0103387G05(L11V, A14P, H37Y, N82bS, N83R, V89L, R105Q)
In the case of B5, the EC50 in test [5] worked out at 4.9 nM; in [6], 4.4 nM; in [3], 5.7 nM; in test [4], 5 nM. In addition, the Bmax in test [6] and in [3] was 100% each time.

B6: F010301645 (VHH)
VHH: B3 VHH with G40A, P41A
notes: also called F0103387G05(L11V, A14P, G40A, N82bS, N83R, V89L, R105Q)
As for B6, the EC50 turned out to be 4.6 nM in test [5], 3.9 nM in [6], 4.7 nM in [3] and 4.2 nM in test [4]. Besides, the Bmax in test [6] and in test [3] was 100% throughout.

B7: F010301563 (VHH)
VHH: B2 VHH with G53D, G54D
notes: also called F0103387G05(D23A, D58G)
On to B7, for which the EC50 turned out to be 1.5 nM in test [3] and 1 nM in test [4].

B8: F010301849 (VHH)
VHH: B3 VHH with D23A, G40A, D58G
notes: also called F0103387G05(L11V, A14P, D23A, G40A, A41P, D58G, N82bS, N83R, V89L, R105Q)
As for B8, the Bmax in test [3] was 100%. For the same molecule, the results for the EC50 in [3] and in test [4] were 3 nM and 1.8 nM, respectively.

B9: F010301643 (VHH)
VHH: B3 VHH with D23A, P41A
notes: also called F0103387G05(L11V, A14P, D23A, N82bS, N83R, V89L, R105Q)
Regarding B9, the EC50 in test [5] came out at 3.6 nM; in [6] it was 3.7 nM; in [3], 4.1 nM; in [4] it was 3.4 nM. In addition, the Bmax in [6] and in [3] was 100% in each case.

B10: F010301639 (VHH)
VHH: EVQLVESGGGVVQPGGSLRLSCAASGSIFNINSMAWYRQAPGKQRELVASSTNGGSTNYADSVKGRFTISRDNAKRTVYLQMNSLRPEDTALYYCNALLQPSIYDISRTYWGQGTLVTVSS
notes: also called F0103275B05(R76_V78insT)(L11V, R39Q, T83R, V89L)
Turning to B10, the EC50 in test [7] was determined as 94 nM.

B11: F010301640 (VHH)
VHH: B10 VHH with Q39R
notes: also called F0103275B05(R76_V78insT)(L11V, T83R, V89L)
For B11, the EC50 in [7] came out at 65 nM.

B12: F010300316 (VHH)
VHH: EVQLVESGGGLVQPGGSLRLSCAASGSIFNINSMAWYRRAPGKQRELVASSTNGGSWNYADSVKGRFTISRDNAKRVYLQMNSLTPEDTAVYYCNALLQPSIYDISRTYWGQGTLVTVSS
notes: vs F0103275B05: T57W
In test [8], B12 returned a concentration for a half-maximal effect (EC50) of 170 nM. In addition, in test [9], the “2-pulse IC50 [M], P1” value came out at 5e-06 M and the “2-pulse IC50 [M], P2” value was 4e-06 M. Besides, in test [10], the “2-pulse IC50 [M], P1” value was 2e-06 M and the “2-pulse IC50 [M], P2” value was 1e-06 M.

B13: F010300631 (VHH)
VHH: B12 VHH with S27P, I28V, S50Y, N53P, W57T, N95R
In the case of B13, the “Qpatch IC50” value in [1] was 73 nM; in test [2], 173 nM.

B14: F010300880 (VHH)
VHH: B12 VHH with S27P, I28V, S33R, N53P, S56D, W57T, N95R, A96W
On to B14, for which the “Qpatch IC50” value amounted to 27 nM in test [1] and 122 nM in [2].

B15: F010300684 (VHH)
VHH: B12 VHH with S27P, I28V, I31W, N53P, W57T, N95R, T108I
On to B15, for which the results for the “Qpatch IC50” value in test [1] and in test [2] were 202 nM and 212 nM, respectively.

B16: F010300900 (VHH)
VHH: B12 VHH with S27P, I28V, S33R, N53P, S56D, W57T, N95R, A96W, T108I
For B16, the “Qpatch IC50” value in test [1] amounted to 196 nM; in test [2], 36 nM.

B17: F010300948 (VHH)
VHH: B12 VHH with S27P, I28V, S33R, N53P, W57T, N95R, A96W, T108I
As to B17, the “Qpatch IC50” value in [1] worked out at 315 nM; in test [2] it was 58 nM.

B18: F010300477 (VHH)
VHH: B12 VHH with W57T, A96W
As for B18, the figures for the “Qpatch IC50” value in test [1] and in test [2] were 96 nM and 1190 nM, respectively.

B19: F010300990 (VHH)
VHH: B12 VHH with S27P, I28V, S33R, S50Y, N53P, W57T, T108I
B19: the results for the “Qpatch IC50” value in test [1] and in test [2] were 249 nM and 101 nM, respectively.

B20: F010301462 (VHH)
VHH: B12 VHH with S27P, I28V, S33R, S50Y, N53P, S56D, W57T, N95R
notes: vs F0103275B05: S27P, I28V, S33R, S50Y, N53P, S56D, N93R
Take B20: the values for the concentration for a half-maximal effect (EC50) in [11], in test [12] and in test [8] were 35 nM, 22 nM and 23 nM, respectively.

B21: F010301459 (VHH)
VHH: B12 VHH with S27P, I28V, S33R, N53P, S56D, W57T, N95R
notes: vs F0103275B05: S27P, I28V, S33R, N53P, S56D, N93R
Consider B21, for which the half-maximal effective concentration (EC50) in test [11] was found to be 22 nM; in [12] it was 18 nM; in test [8], 23 nM.

B22: F010300796 (VHH)
VHH: B12 VHH with S27P, I28V, S33R, S50Y, N53P, S56D, W57T
notes: vs F0103275B05: S27P, I28V, S33R, S50Y, N53P, S56D
Regarding B22, the EC50 in test [11] came out at 5.8 nM; in [12], 38 nM; in [8], 44 nM.

B23: F010301460 (VHH)
VHH: B12 VHH with S27P, I28V, S33R, S50Y, N53P, W57T, N95R
notes: vs F0103275B05: S27P, I28V, S33R, S50Y, N53P, N93R
Regarding B23, the results for the EC50 in test [11], in test [12] and in test [8] were 15 nM, 26 nM and 32 nM, respectively.

B24: F010300468 (VHH)
VHH: B12 VHH with W57T, N95R
notes: vs F0103275B05: N93R; also called F0103275B05(N93R)+FLAG3-HIS6; F103275B05(N93R)
For B24, the response in test [8] was half-maximal at 40 nM (EC50). Besides, in test [9], the “2-pulse IC50 [M], P1” value was 6e-06 M and the “2-pulse IC50 [M], P2” value was 3e-06 M. In addition, in test [10], the “2-pulse IC50 [M], P1” value was found to be 5e-06 M and the “2-pulse IC50 [M], P2” value turned out to be 4e-06 M.

B25: F010301000 (VHH)
VHH: B12 VHH with S27P, I28V, S33R, S50Y, N53P, S56D, W57T, T108I
notes: vs F0103275B05: S27P, I28V, S33R, S50Y, N53P, S56D, T101I
For B25, the EC50 in [11] came to 8.5 nM; in [12], 60 nM; in [8], 40 nM.

B26: F010301461 (VHH)
VHH: B12 VHH with S33R, S50Y, S56D, W57T, N95R
notes: also called F0103275B05(S33R, S50Y, S56D, N93R)
As to B26, the EC50 was 28 nM in test [11], 21 nM in test [12] and 24 nM in [8].
